Data: patent US11464784B2, “Inhibition of aminocylase 3 (AA3) in the treatment of cancer” (THE REGENTS OF THE UNIVERSITY OF CALIFORNIA, priority 2017, dated 2022)

Substrate: CC(=O)C/C(C)=C/CC/C(C)=C/CC/C(C)=C/CC/C(C)=C/CN[C@@H](CS)C(=O)O
Assay: Substrate kinetics of mouse AA3 (mAA3)
Assay type: biochemical
Conditions: other: substrate of mAA3

B1: mAA3 (Mus musculus) (protein)
chain: MSSLPGSREPLLRVAVTGGTHGNEMCGVYLARYWLQNPGELQRPSFSAMPVLANPAATAACCRYLDRDLNRSCTLTFLGSTATPDDPYEVKRARELNQLLGPKGTGQAFDFTLDLHNTTANTGVCLISESNISFNLHLCHYLQRQNPGMPCRLFLYEPAGTETFSVESISKNGICLEMGPQPQGVLRADLFSRMRALVASILDFIELFNQGMDLPAFEMDIYRNLGSVDFPRTADGDLAGTVHPQLQDHDFEPLRPGEPIFKLFSGEDVLYEGDSIVYPVFINEAAYYEKHVAFLKSEKIRVTVPALLRLTPRSTQTP
Km: 25 µM
